The test system of data set [1] is SMP30. The data set is described as follows: Immunohistochemical observation of SMP30 in liver cells. It is filed as in vivo. To be noted: wild type mice, 100 mg/kg oral before CCl4, compared with CCl4 alone. On the procedure:
(§1) Wild type mice and SMP30 knock-out mice were divided, by 5 of each, into negative control groups (G1, G5), positive control groups (G2, G6), two of experimental group 1 (G3, G7) and two of experimental group 2 (G4, G8) (Table 1). Intraperitoneal administration of olive oil was performed once to negative control mice (G1, G5), while intraperitoneal administration of CCl4 (0.4 ml/kg) was performed once to positive control mice (G2, G6). In the meantime, 100 mg/kg of vitamin C dissolved in tap water was orally administered to experimental group 1 mice (G3, G7) one day before the intraperitoneal administration of CCl4 (0.4 ml/kg). 100 mg/kg of arazyme dissolved in tap water was orally administered to experimental group 2 mice (G4, G8) one day before the intraperitoneal administration of CCl4 (0.4 ml/kg). 24 hours after the administration of CCl4, autopsy was performed in every mouse and samples were taken from each mouse for histopathological test.
To observe SMP30 in liver cells immunohistochemically, paraffin embedded tissues fixed with formalin were cut into 4 μm thick sections, followed by deparaffinization. To inhibit the activity of endogenous peroxidase, the sections were treated in 3% H2O2 for 30 minutes and washed with 0.01 M PBS. To increase antigen expression of the tissues, the sections were treated with 0.01 M citrate buffer, followed by heat treatment using microwave. […]

The test system of data set [2] is P-smad3. The data set is described as follows: Immunohistochemical observation of P-smad3 expression in liver cells. The note with it: for P-smad3 immune response (immunohistochemistry): 100 mg/kg oral before CCl4, 100 mg/kg. It is filed as in vivo, mice.
The test system of a further data set is rats. The data set is described as follows: Acute toxicity test of arazyme, single oral administration. It is filed as in vivo, Wistar rats. The note with it: female rats, oral 1250, 2500 and 5000 mg/kg once. On the procedure: The following experiments were performed to see if arazyme has acute toxicity in rats.
9-week old SPF (specific pathogen-free) Wistar line rats (Orient, Co., Seoul, Korea) were raised in an animal facility (4 groups, 4 rats per group) where temperature was regulated to 22±3° C., humidity was adjusted to 55±10% and light was also regulated to 12L/12D. The rats were quarantined and adapted for one week before being used. During the whole experiment period, the rats were raised in polycarbonate cages [240 W×390 L×175 H (mm)] by up to 5 per cage. Skin mark using an oil magic pen and individual identification card were used for distinguishment. Feed for laboratory animals (PMI Nutrition International, USA) was provided at any time after being sterilized. Tap water was provided using a water bottle at any time after being purified by a carbon filter.
Arazyme of the invention was dissolved in distilled water for injection at the concentrations of 0, 1250, 2500 and 5000 mg/kg, and 10 ml/kg of each arazyme solution was orally administered once to rats using zonde. After one week-adaptation, the rats were divided into four groups. Different concentrations of arazyme were administered to rats at 10 weeks, and general symptoms were checked. To evaluate toxicity of arazyme to organs, autopsy was performed 24 hours after the administration.
After oral-administration of arazyme to female rats, any symptom according to the administration was investigated and behavior, appearance and biological functions of rats were also observed to evaluate toxicity.

Data set [3] has as its system P-smad3. The data set is described as follows: Expression of P-smad3 in liver cells by immunoblotting. The note with it: SMP30 knock-out mice; compared with CCl4 alone (G6). It is filed as in vivo. On the procedure: as §1
(§2) The expression of SMP30 in liver cells was investigated by immunoblotting. First, the liver tissues frozen at −70° C. were homogenized in RIPA buffer containing 0.1 mM sodium orthovandate (Na3VO4) and protease inhibitor cocktail tablet (Roche, Mannheim, Germany). […] Protein concentration was measured by Bradford method and each protein sample proceeded onto 10% SDS-polyacrylamide gel at the concentration of 80 µg/well, followed by electrophoresis. […]
A general note: In western blotting, separated proteins are transferred to a membrane and probed.

In another data set the test system is liver cells. The data set is described as follows: Histopathological observation on liver cells (H&E) in CCl4-induced acute liver injury. Type of data set: in vivo, mice. To be noted: for necrosis in liver cells: 100 mg/kg oral one day before CCl4 0.4 ml/kg i.p., autopsy 24 hours after CCl4.
From the text: In the present invention, male wild type C57BL/6(WT) at 12 weeks and SMP30 knock-out C57BL/6(KO) mice were used to induce liver injury by CCl4 and then the relation of SMP30 with arazyme was investigated. 10 male and 20 female SMP30 knock-out C57BL/6 mice were distributed from Tokyo Metropolitan Institute of Gerontology, which were then raised in the animal laboratory at Department of Pathology, College of Veterinary Medicine, Kyungpook National University, Korea. Among F1 mice generated by breeding, knock-out mice were selected by tail DNA genotyping by PCR.
Wild type mice were quarantined and adapted for 7 days in the animal laboratory. During the adaptation, every symptom was checked and only healthy animals were selected. Both wild type and SMP30 knock-out mice were 12 weeks old, excluding the difference in age.
Rats were adapted and raised in an animal facility where temperature was regulated to 22±3° C., humidity was adjusted to 55±10% and light was also regulated to 12L/12D (08:00 lights on, 20:00 lights out). The environmental conditions were checked regularly (every three months). After environmental evaluation, no changes in important conditions were recognized. During the whole experiment period, rats were raised in polycarbonate cages [240 W×390 L×175 H (mm)] by up to 5 per cage. Skin mark using an oil magic pen and individual identification card were used for distinguishment. Feed for laboratory animals (PMI Nutrition International, 505 North 4th Street Richmond, in 47374, USA) was provided at any time after being sterilized by irradiation (13.2 kGy). Tap water was provided using a water bottle at any time after being purified by a carbon filter. Carbon tetrachloride was diluted in olive oil at the concentration of 0.4 ml/kg and administered to […] once to induce liver injury. 24 hours after the administration, autopsy was performed.
as §1, with “24 hours after the administration of CCl4, autopsy was performed in every mouse and samples were taken from each mouse for histopathological test.” left out

Data set [4] concerns SMP30. The data set is described as follows: Expression of SMP30 in liver cells by immunoblotting. It is filed as in vivo. The note with it: wild type mice; 100 mg/kg oral before CCl4; compared with CCl4 only (G2). On the procedure:
as §1, §2

The mark [5] stands for this setting: autopsy 24 hours after administration.

“Also recorded” adds a separate entry of the source.

B1: arazyme: novel protease produced by Aranicola proteolyticus HY-3 (KCTC 0268BP); 51.5 kDa monomer; polypeptide sequence SEQ ID NO: 1 (protein, listed as Aranicola proteolyticus)
chain: MQSTKKAIEITESSLAAASSAYNAVDDLLHYHERGNGIQVNGKDSFSTEQAGLFITRENQTWNGYKVFGQPVKLTFSFPDYKFSSTNVAGDTGLSKFSAEQQQQAKLSLQSWSDVANITFTEVGAGQKANITFGNYSQDRPGHYDYDTQAYAFLPNTIYQGQNLGGQTWYNVNQSNVKHPASEDYGRQTFTHEIGHALGLSHPGDYNAGEGNPTYRDASYAEDTREFSLMSYWSETNTGGDNGGHYAAAPLLDDISAIQHLYGANQTTRTGDTVYGFNSNTGRDFLSTTSNPQKVIFAAWDAGGNDTFDFSGYTANQRINLNEKSFSDVGGLKGNVSIAAGVTIENAIGGSGNDVIVGNAANNVLKGGAGNDVLFGGGGADELWGGAGKDTFVFSAVSDSAPGASDWIKDFQKGIDKIDLSFFNQGAQGGDQIHFVDHFSGAAGEALLSYNASNNVSDLALNIGGHQAPDILVKIVGQVDVATDFIV
modifications: BINDING (192)..(192) Zn binding site
For B1, the “SMP30 expression (immunohistochemistry)” value with SMP30 [1] is “higher; also recorded: more strongly expressed”. Moreover, the “P-smad3 expression, arazyme groups compared with vitamin C groups” value with P-smad3 [2] (G4, G8 versus G3, G7, wild type and SMP30 knock-out mice) is recorded as “lower”. Besides, in the data set with P-smad3 [2] (SMP30 knock-out mice, G6, G7 compared with G8), the “P-smad3 immune response (immunohistochemistry)” value is “strongly detected in the groups treated with CCl4 alone or together with vitamin C (G6, G7), compared with the group (G8) treated with arazyme”. In the data set on P-smad3 [2] (wild type mice, compared with CCl4 only (G2)), the “P-smad3 immune response (immunohistochemistry)” value was “strong immune response against P-smad3 was detected in group 2 (G2) treated with CCl4 only, compared with the groups (G3, G4) treated with vitamin C and arazyme; also recorded: strongly observed in CCl4 treated group (G2), compared with the groups treated with vitamin C and arazyme (G3, G4)”. In the data set on rats, the “appearance (hair coat, periocular region, ears, genitalia, limbs, tail)” value is given as “no changes”; the “biological functions (respiration, salivation, feces, emesis)” value is given as “no abnormal symptoms were found”; the “symptoms in relation to motion, walking, temper and convulsions” value is “no specific symptoms”. Besides, in the data set on rats (setting [5]), the “autopsy with naked eyes, organs” value is given as “did not cause any abnormal symptom or disorder in every organ” and the “microscopic observation of organs (liver, heart, lung, spleen)” value is reported as “No pathological changes were observed”. Besides, the “autopsy with naked eyes, organs” value in the data set with rats (autopsy 24 hours after administration, listed as Arazyme) is reported as “no abnormal symptoms were observed”. Besides, in the data set with P-smad3 [3], the “P-smad3 expression (immunoblotting)” value was “inhibited”. Further, in the data set on liver cells (SMP30 knock-out C57BL/6 mice), the “necrosis in liver cells” value is “significantly inhibited”. For the same molecule, in the data set with liver cells (arazyme treated group, CCl4 liver injury), the “injury in liver cells around central vein region” value was “only weak injury”. The “necrosis in liver cells” value in the data set with liver cells (wild type C57BL/6 mice) was “significantly inhibited”. Moreover, the “apoptosis of liver cells, histological observation” value with liver cells (wild type and SMP30 knock-out mice with acute liver injury) is on record as “inhibition of apoptosis of liver cells was observed”. The “SMP30 expression (immunoblotting)” value in the data set with SMP30 [4] was “high”.

Source of the values: patent US8367060B2, “Pharmaceutical composition containing arazyme for the prevention of liver dysfunction” (Insect Biotech Co., Ltd., priority 2006, dated 2013).
